Sequences and labels used below:
B1: Peroxisome proliferator-activated receptor delta, residues 71 to 145; numbered along this chain, Q03181 (parent)
chain: NMECRVCGDKASGFHYGVHACEGCKGFFRRTIRMKLEYEKCERSCKIQKKNRNKCQYCRFQKCLALGMSHNAIRF

Abundance fitness data for 167 variants are collected here from the Human Domainome abundance scans (Beltran et al. 2025).

± gives the uncertainty stated by the source.

The variants in this data set derive from B1. The data set can be described thus: abundance fitness (aPCA) (normalised: wild type 0, dead -1); higher = more abundant; growth selection in yeast, the domain comes from the species named. Particulars: Homo sapiens.
G8P: the abundance fitness was -0.891 ± 0.11. For the variant G8L, the abundance fitness was -0.598 ± 0.07. Take G8F: the abundance fitness was -0.779 ± 0.23.

For the variant V6C, the abundance fitness is -0.873 ± 0.19. Then V6K, with -0.745 ± 0.14; and A11D, with -0.237 ± 0.077; and A11K, with -0.482 ± 0.091. For the variant A11L, the abundance fitness is -0.338 ± 0.048.

With A11Y, the abundance fitness was -0.31 ± 0.083. A11R: the abundance fitness was -0.485 ± 0.049. On to A11S, for which the abundance fitness is -0.091 ± 0.045.

As for A11W, the abundance fitness was -0.706 ± 0.092. Consider A11I, for which the abundance fitness was -0.154 ± 0.083. Then C45E, with -0.838 ± 0.1; and C45F, with -0.647 ± 0.13. Then C45H, with -0.218 ± 0.17; and C45Q, with -0.884 ± 0.2. Then C45L, with -0.766 ± 0.1; and C41V, with -0.645 ± 0.13. As to T31Q, the abundance fitness was -0.792 ± 0.15. Then T31Y, with -0.46 ± 0.17; and T31A, with -0.288 ± 0.051.

T31P: the abundance fitness was -1.16 ± 0.2.

On to T31K, for which the abundance fitness is -0.917 ± 0.22. As to G17K, the abundance fitness was -0.861 ± 0.17. The figure for G17W is -0.918 ± 0.13; for G17H it is -0.682 ± 0.17. Consider G17V, for which the abundance fitness is -0.647 ± 0.078. G17P: the abundance fitness is -0.527 ± 0.067. G17F: the abundance fitness is -0.661 ± 0.16.

G17M: the abundance fitness was -0.158 ± 0.076. For the variant G17I, the abundance fitness is -0.813 ± 0.19.

With Q61T, the abundance fitness is -0.304 ± 0.062. The figure for Q61C is -0.615 ± 0.19.

As for Q61R, the abundance fitness is -0.296 ± 0.038. Regarding Q61H, the abundance fitness is -0.248 ± 0.092.

Q61E: the abundance fitness was -0.037 ± 0.041. Then Q61M, with -0.061 ± 0.053; and K35W, with -0.535 ± 0.091.

As to K35R, the abundance fitness was -0.026 ± 0.036.

As to K35P, the abundance fitness is -0.509 ± 0.076. The figure for K35C is -0.015 ± 0.053; for E42Q it is -0.104 ± 0.049.

Consider E42P, for which the abundance fitness was -0.25 ± 0.056.

Regarding E42G, the abundance fitness was -0.135 ± 0.028.

Consider C4W, for which the abundance fitness is -0.747 ± 0.13. Then C4N, with -0.738 ± 0.2; and K46L, with 0.022 ± 0.033; and K46W, with -0.153 ± 0.043. Then K46V, with 0.023 ± 0.032. The figure for K46S is 0.006 ± 0.038.

Take K46D: the abundance fitness turned out to be 0.142 ± 0.04. K46T: the abundance fitness came to 0.05 ± 0.046.

Take K46H: the abundance fitness was 0.047 ± 0.068. Turning to H15K, the abundance fitness was -0.61 ± 0.11. Then H15P, with -0.242 ± 0.055. Turning to H15I, the abundance fitness was -0.154 ± 0.076. The figure for H15S is -0.117 ± 0.041; for H15V it is -0.238 ± 0.043; for H15T it is -0.174 ± 0.047. Then E37M, with -0.164 ± 0.053. Then E37W, with -0.311 ± 0.056; and C63Y, with -0.232 ± 0.078; and C63D, with -0.635 ± 0.14.

As to C63E, the abundance fitness is -0.689 ± 0.13. The figure for C63Q is -0.698 ± 0.11; for C63S it is -0.905 ± 0.11. The figure for C63T is -0.85 ± 0.13; for C63M it is -0.063 ± 0.06; for C63W it is -0.88 ± 0.13. In the case of A72W, the abundance fitness was -0.353 ± 0.061. The figure for A72T is -0.248 ± 0.065; for A72I it is -0.297 ± 0.1. A72K: the abundance fitness was -0.175 ± 0.067. Then A72R, with -0.257 ± 0.043; and E3N, with -0.079 ± 0.068; and E3S, with -0.033 ± 0.041. The figure for E3Q is -0.059 ± 0.048; for R74C it is -0.141 ± 0.099; for R74V it is -0.013 ± 0.061. For R74W, the abundance fitness is -0.084 ± 0.06.

As for R74T, the abundance fitness came out at 0.071 ± 0.062.

For R74K, the abundance fitness is 0.067 ± 0.075. N51Y: the abundance fitness was -0.363 ± 0.15. Then N51T, with -0.002 ± 0.062; and N51R, with -0.395 ± 0.055; and R33H, with -0.091 ± 0.098.

Take R33S: the abundance fitness turned out to be 0.168 ± 0.043. The figure for R33F is 0.208 ± 0.1; for E22F it is -0.343 ± 0.091. The figure for E22D is -0.148 ± 0.074. Then E22P, with -0.294 ± 0.056; and Y16F, with -0.085 ± 0.082; and Y16G, with -0.013 ± 0.044. For the variant Q56E, the abundance fitness was 0.077 ± 0.042. On to Q56L, for which the abundance fitness is -0.031 ± 0.039. For Q56P, the abundance fitness is -0.025 ± 0.046. The figure for Q56Y is -0.116 ± 0.076. Then Q56D, with 0.189 ± 0.052; and Q56C, with 0.005 ± 0.067; and G26F, with -0.125 ± 0.083. G26E: the abundance fitness amounted to 0.127 ± 0.046. Then G26W, with -0.174 ± 0.048; and M68Q, with -0.668 ± 0.12. Then M68C, with -0.9 ± 0.17; and M68N, with -0.81 ± 0.37. M68H: the abundance fitness is -0.771 ± 0.25. The figure for M68R is -0.698 ± 0.065. For the variant M68T, the abundance fitness is -0.769 ± 0.14.

Take C24L: the abundance fitness is -0.753 ± 0.1. The figure for C24E is -0.924 ± 0.18. Then C24R, with -0.823 ± 0.091; and C24I, with -0.464 ± 0.13. Then C24N, with -0.648 ± 0.3; and G23L, with -0.061 ± 0.04; and G23W, with 0.084 ± 0.045. G23M: the abundance fitness stood at 0.009 ± 0.056.

As to N1R, the abundance fitness is -0.296 ± 0.064. As for N1D, the abundance fitness is -0.049 ± 0.066. Then F27D, with -0.41 ± 0.11; and F27Q, with -0.958 ± 0.21. The figure for F27L is -0.784 ± 0.098.

As for F27Y, the abundance fitness was -1.06 ± 0.31. The figure for N53P is -0.468 ± 0.087; for N53A it is -0.086 ± 0.041. Then N53I, with -0.051 ± 0.074. The figure for N53L is -0.217 ± 0.044. Turning to N53F, the abundance fitness was -0.083 ± 0.092. As to N53T, the abundance fitness was -0.112 ± 0.051. Then L66W, with -0.629 ± 0.12; and L66Q, with 0.014 ± 0.056; and L66M, with 0.109 ± 0.05. The figure for L66C is -0.15 ± 0.077; for M2C it is -0.064 ± 0.08; for M2D it is -0.056 ± 0.079. Then M2A, with -0.526 ± 0.091; and K10V, with 0 ± 0.038. Consider K10H, for which the abundance fitness is -0.027 ± 0.094. The figure for K62H is -0.522 ± 0.14; for K62W it is -0.646 ± 0.092. For the variant K62I, the abundance fitness is -0.245 ± 0.099. In the case of K62T, the abundance fitness is -0.234 ± 0.063.

As to R30D, the abundance fitness stood at 0.026 ± 0.065. Then R30C, with -0.275 ± 0.08.

As to R30A, the abundance fitness was -0.359 ± 0.055. The figure for R30N is 0.021 ± 0.1; for R30T it is -0.07 ± 0.058. Then R30P, with -1.05 ± 0.17; and D9G, with -0.198 ± 0.037; and D9E, with -0.154 ± 0.044. Then D9A, with -0.065 ± 0.043; and D9V, with -0.331 ± 0.048. With L64M, the abundance fitness is -0.188 ± 0.058.

With L64P, the abundance fitness was -0.838 ± 0.12. Then L64E, with -0.397 ± 0.073; and L64G, with -0.805 ± 0.079. L64A: the abundance fitness was -0.38 ± 0.059. Consider L64F, for which the abundance fitness is -0.828 ± 0.23. The figure for L64C is -0.16 ± 0.073. Turning to R43S, the abundance fitness is -0.045 ± 0.043. The figure for R43A is -0.064 ± 0.049; for R43F it is 0.082 ± 0.1. Then R43P, with -0.168 ± 0.072. The figure for R43E is 0.013 ± 0.05; for R43V it is -0.158 ± 0.049; for V18Y it is -0.652 ± 0.14. Take V18I: the abundance fitness is -0.051 ± 0.074.
